Starred links: 1 amine or outer side, 2 acyl side, 3 side chain; linkers in the order of their positions; H or OH if unused. Positions of bridges follow the written chain, without caps; N, C: chain ends. Non-standard residues stand in square brackets, D forms with d. Primed or numbered codes have the meaning given here. PyrS2″ = (S)-3-amino-1-((pent-4-en-1-yloxy)carbonyl)pyrrolidine-3-carboxylic acid (stapling residue), C=CCCCOC(=O)N1CC[C@@](N[*:1])(C(=O)[*:2])C1; B5(24) = 2-amino-2-(pent-4-en-1-yl)hept-6-enoic acid, 2,2-bis(4-pentenyl)glycine (stitching residue), C=CCCCC(CCCC=C)(N[*:1])C(=O)[*:2]; B5(4) = 2,2-bis(4-pentenyl)glycine = 2-amino-2-(pent-4-en-1-yl)hept-6-enoic acid (stitching residue), C=CCCCC(CCCC=C)(N[*:1])C(=O)[*:2]; B5(5) = 2,2-bis(4-pentenyl)glycine, 2-amino-2-(pent-4-en-1-yl)hept-6-enoic acid (stitching residue), C=CCCCC(CCCC=C)(N[*:1])C(=O)[*:2]; B5(31) = 2-amino-2-(pent-4-en-1-yl)hept-6-enoic acid (bis-pentenylglycine, stitching residue), C=CCCCC(CCCC=C)(N[*:1])C(=O)[*:2]; B5(3) = 2,2-bis(4-pentenyl)glycine (stitching residue), C=CCCCC(CCCC=C)(N[*:1])C(=O)[*:2]; Phe(3-CF3) = N[C@@H](Cc1cccc(C(F)(F)F)c1)C(=O)O; Phe(4-CF3) = N[C@@H](Cc1ccc(C(F)(F)F)cc1)C(=O)O; Phe(3-COOH) = N[C@@H](Cc1cccc(C(=O)O)c1)C(=O)O; Phe(3-OMe) = COc1cccc(C[C@H](N)C(=O)O)c1; Phe(2-Cl) = N[C@@H](Cc1ccccc1Cl)C(=O)O; 1Nal = N[C@@H](Cc1cccc2ccccc12)C(=O)O; 2Nal = N[C@@H](Cc1ccc2ccccc2c1)C(=O)O; Phe(2-F) = N[C@@H](Cc1ccccc1F)C(=O)O; Bta = N[C@@H](Cc1csc2ccccc12)C(=O)O; Lys(iPr) = CC(C)NCCCC[C@H](N)C(=O)O; αAllylPro = C=CC[C@@]1(C(=O)O)CCCN1; tBuAla = CC(C)(C)C[C@H](N)C(=O)O; 3Thi = N[C@@H](Cc1ccsc1)C(=O)O; Cha = N[C@@H](CC1CCCCC1)C(=O)O; hSer = N[C@@H](CCO)C(=O)O; Aib = CC(C)(N)C(=O)O

The target in test [1] is full-length beta-Catenin (Uniprot ID P35222) (Homo sapiens (Human)) (UniProt P35222). Briefly: fluorescence polarization competition; 10 nM full-length beta-catenin + 10 nM 5FAM-TCF4(10-53) probe; peptide titrated 10 uM to 5 nM. A general note: Polarisation of emitted light reports the rotation of a fluorescent probe.
Target sequence in this assay (P35222 2-781 limits assumed): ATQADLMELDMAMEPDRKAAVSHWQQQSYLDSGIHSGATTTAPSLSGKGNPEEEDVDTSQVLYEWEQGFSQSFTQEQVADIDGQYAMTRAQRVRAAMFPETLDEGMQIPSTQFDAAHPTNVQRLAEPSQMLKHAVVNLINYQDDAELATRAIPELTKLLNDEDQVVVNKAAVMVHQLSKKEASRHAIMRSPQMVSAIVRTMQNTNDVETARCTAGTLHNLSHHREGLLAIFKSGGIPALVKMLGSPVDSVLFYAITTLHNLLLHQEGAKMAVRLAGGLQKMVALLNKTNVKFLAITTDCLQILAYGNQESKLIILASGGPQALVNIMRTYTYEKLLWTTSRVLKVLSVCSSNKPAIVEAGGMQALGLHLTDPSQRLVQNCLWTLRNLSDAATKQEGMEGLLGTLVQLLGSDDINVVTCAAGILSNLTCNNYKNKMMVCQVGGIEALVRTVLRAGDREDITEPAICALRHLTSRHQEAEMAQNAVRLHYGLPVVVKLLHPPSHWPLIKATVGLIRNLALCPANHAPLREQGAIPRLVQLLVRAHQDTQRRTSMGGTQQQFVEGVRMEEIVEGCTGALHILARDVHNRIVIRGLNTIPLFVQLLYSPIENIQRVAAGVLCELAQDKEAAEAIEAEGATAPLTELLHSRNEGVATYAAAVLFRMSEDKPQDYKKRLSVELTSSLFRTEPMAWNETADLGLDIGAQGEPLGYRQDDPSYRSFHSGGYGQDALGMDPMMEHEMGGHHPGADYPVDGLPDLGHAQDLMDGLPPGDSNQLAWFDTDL
Test [2] shares this target. Nature of the test: fluorescence polarization competition, full-length beta-catenin, competitor 5FAM-TCF4 10-53.
Target sequence in this assay (P35222 whole entry): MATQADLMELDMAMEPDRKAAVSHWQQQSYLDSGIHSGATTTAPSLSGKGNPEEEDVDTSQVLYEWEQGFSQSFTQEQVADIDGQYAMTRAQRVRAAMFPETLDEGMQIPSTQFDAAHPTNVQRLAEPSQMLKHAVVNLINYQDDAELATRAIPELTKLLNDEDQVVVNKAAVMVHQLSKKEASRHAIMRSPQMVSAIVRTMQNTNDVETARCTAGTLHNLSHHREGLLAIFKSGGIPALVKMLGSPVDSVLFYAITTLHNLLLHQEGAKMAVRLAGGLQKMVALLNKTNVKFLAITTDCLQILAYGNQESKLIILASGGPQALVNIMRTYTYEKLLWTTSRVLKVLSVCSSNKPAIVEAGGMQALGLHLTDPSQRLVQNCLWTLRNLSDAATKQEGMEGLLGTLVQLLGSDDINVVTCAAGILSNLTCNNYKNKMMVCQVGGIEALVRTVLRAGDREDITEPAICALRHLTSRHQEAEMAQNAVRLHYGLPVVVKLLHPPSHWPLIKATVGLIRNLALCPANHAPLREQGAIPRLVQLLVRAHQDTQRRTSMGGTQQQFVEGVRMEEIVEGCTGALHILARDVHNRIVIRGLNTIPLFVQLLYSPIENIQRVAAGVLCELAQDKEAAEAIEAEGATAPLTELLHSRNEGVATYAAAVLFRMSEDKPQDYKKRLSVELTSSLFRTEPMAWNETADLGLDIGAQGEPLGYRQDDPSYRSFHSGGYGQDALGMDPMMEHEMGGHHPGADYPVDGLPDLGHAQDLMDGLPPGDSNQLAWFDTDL
Test [3] shares this target. Nature of the test: fluorescence polarization competition, 5FAM-TCF4 10-53 probe on full-length beta-catenin.
Target sequence in this assay (P35222 2-781 limits assumed): as the sequence (P35222 2-781 limits assumed) above
Test [4] shares this target. Briefly: fluorescence polarization competition; 10 nM full-length beta-catenin + 10 nM 5FAM-TCF4 10-53 as competitor probe.
Target sequence in this assay (P35222 2-781 limits assumed): as above
For test [5] the target is unchanged. Nature of the test: fluorescence polarization competition; full-length beta-catenin, competitor 5FAM-TCF4 10-53.
Target sequence in this assay (P35222 whole entry): as the sequence (P35222 whole entry) above
For test [6] the target is unchanged. Briefly: fluorescence polarization competition; 10 nM full-length beta-catenin, 10 nM 5FAM-TCF4(10-53) as competitor probe.
Target sequence in this assay (P35222 2-781 limits assumed): as the sequence (P35222 2-781 limits assumed) above

For Ac-[αAllylPro]D[tBuAla][B5(31)]NTAAFT[PyrS2″][3Thi][Bta]H-NH2 (staple 1-4, 4-11) [I-2337], in test [1], the IC50 – broadly, the concentration needed to halve the response being measured – was 311 nM.

Consider Ac-[αAllylPro]D[tBuAla][B5(3)]NT[Aib]AFN[PyrS2″][3Thi][Bta]Q-NH2 (staple 1-4, 4-11) [I-2338], for which, in test [1], the IC50 was 63 nM.

With Ac-[αAllylPro]N[Cha][B5(4)]DQ[Lys(iPr)]AFL[PyrS2″]F[Bta]H-NH2 (staple 1-4, 4-11) [I-2351], in test [1], the IC50 is 187 nM.

Regarding Ac-[αAllylPro]D[Cha][B5(4)]DDAA[Phe(3-OMe)]S[PyrS2″][Phe(2-Cl)][Bta]Q-NH2 (staple 1-4, 4-11) [I-1118], the IC50 in test [2] came to 24 nM. In addition, the concentration for a half-maximal effect (EC50) (in general, the concentration giving half of the maximal effect) in test [3] came to 24 nM.

As for Ac-[αAllylPro]N[Cha][B5(4)]DQ[Lys(iPr)]AFL[PyrS2″]F[Bta]A-NH2 (staple 1-4, 4-11) [I-2352], the IC50 in test [1] came to 211 nM.

As to Ac-[αAllylPro]D[tBuAla][B5(24)]DDAAFN[PyrS2″][Phe(2-Cl)][Bta][Lys(iPr)]-NH2 (staple 1-4, 4-11) [I-1130], the IC50 in test [2] stood at 6 nM. In test [3], the EC50 stood at 6 nM.

For Ac-[αAllylPro]D[tBuAla][B5(5)]DEAAFL[PyrS2″][Phe(2-Cl)][Bta][dT]-NH2 (staple 1-4, 4-11) [I-1039], the 50% effective concentration (EC50) in test [4] amounted to 57 nM. This molecule also gave an IC50 in test [5] of 57 nM.

The molecule Ac-[αAllylPro]D[tBuAla][B5(24)]DD[Lys(iPr)]AFN[PyrS2″][Phe(2-Cl)][Bta]Q-NH2 (staple 1-4, 4-11) [I-1131] yielded a 50% inhibitory concentration (IC50) in test [2] of 7 nM. The molecule further returned a 50% effective concentration (EC50) in test [3] of 7 nM.

Regarding Ac-[αAllylPro]N[Cha][B5(31)]DK[Lys(iPr)]AFL[PyrS2″]F[Bta]Q-NH2 (staple 1-4, 4-11; also: staple isomer, earlier eluting HPLC peak) [I-2346], the concentration for half-maximal inhibition (IC50) in test [1] stood at 422 nM.

In test [2], Ac-[αAllylPro]D[Cha][B5(3)]DDAA[Phe(3-CF3)]S[PyrS2″]F[Bta]Q-NH2 (staple 1-4, 4-11) [I-1125] gave a concentration for half-maximal inhibition (IC50) of 16 nM. Also, in test [3], the concentration giving a half-maximal response (EC50) was found to be 16 nM.

For Ac-[αAllylPro]D[tBuAla][B5(5)]DEAAFF[PyrS2″][Phe(2-Cl)][Bta][dT]-NH2 (staple 1-4, 4-11) [I-1038], the 50% effective concentration (EC50) in test [4] worked out at 101 nM. The half-inhibitory concentration (IC50) in test [5] turned out to be 101 nM.

Ac-[αAllylPro]D[tBuAla][B5(3)]N[Phe(3-COOH)]AAFT[PyrS2″][3Thi][Bta]Q-NH2 (staple 1-4, 4-11) [I-2336]: the IC50 in test [1] turned out to be 19 nM.

Regarding Ac-[αAllylPro]D[Cha][B5(4)]DDAA[Phe(3-CF3)]S[PyrS2″][Phe(2-Cl)][Bta]Q-NH2 (staple 1-4, 4-11) [I-1119], the IC50 in test [2] worked out at 26 nM. Moreover, the EC50 in test [3] stood at 26 nM.

As to Ac-[αAllylPro]D[tBuAla][B5(24)]DDA[Lys(iPr)]FN[PyrS2″][Phe(2-Cl)][Bta]Q-NH2 (staple 1-4, 4-11) [I-1132], the IC50 in test [2] is 21 nM. The molecule further showed an EC50 in test [3] of 21 nM.

For the molecule Ac-[αAllylPro]D[2Nal][B5(4)]DDAAFL[PyrS2″][Phe(2-Cl)][Bta]S-NH2 (staple 1-4, 4-11) [I-1117], the IC50 in test [2] stood at 55 nM. This molecule returned an EC50 in test [3] of 55 nM.

Regarding Ac-[αAllylPro]D[1Nal][B5(4)]DDAAFL[PyrS2″][Phe(2-Cl)][Bta]S-NH2 (staple 1-4, 4-11) [I-1116], the half-inhibitory concentration (IC50) in test [2] came to 40 nM. In addition, in test [3], the EC50 is 40 nM.

Consider Ac-[αAllylPro]D[tBuAla][B5(5)]DNAAFT[PyrS2″][Phe(2-F)][Bta]S-NH2 (staple 1-4, 4-11) [I-1024], for which the EC50 in test [4] was 43 nM. Moreover, the concentration for half-maximal inhibition (IC50) in test [5] was 43 nM.

As to Ac-[αAllylPro]D[tBuAla][B5(31)]NTA[Aib]FN[PyrS2″][3Thi][Bta]Q-NH2 (staple 1-4, 4-11) [I-2339], in test [1], the concentration for half-maximal inhibition (IC50) turned out to be 2820 nM.

B1: I-1120 (peptide)
peptide: Ac-[αAllylPro]D[Cha][B5(3)]DDAAFS[PyrS2″][Phe(2-Cl)][Bta]Q-NH2
modifications: staple 1-4, 4-11 (inferred); not fully specified (residue 9); printed as Ac-PL3-Asp-Cha-B5-Asp-Asp-Ala-Ala-4F3MeF-Ser-PyrS2-2C1F-BztA-Gln-NH2
For B1, the IC50 in test [2] stood at 85 nM. Further, the EC50 in test [3] amounted to 85 nM.

Ac-[αAllylPro]N[Cha][B5(31)]D[hSer][Lys(iPr)]AFL[PyrS2″]F[Bta]Q-NH2 (staple 1-4, 4-11) [I-2345]: the half-maximal inhibitory concentration (IC50) in test [1] was 1270 nM.

With Ac-[αAllylPro]D[Cha][B5(3)]DDAA[Phe(3-OMe)]S[PyrS2″]F[Bta]Q-NH2 (staple 1-4, 4-11) [I-1124], the IC50 in test [2] is 12 nM. This molecule had a 50% effective concentration (EC50) in test [3] of 12 nM.

Turning to Ac-[αAllylPro]N[Cha][B5(31)]DK[Lys(iPr)]AFL[PyrS2″]F[Bta]Q-NH2 (staple 1-4, 4-11) [I-2347], in test [1], the 50% inhibitory concentration (IC50) turned out to be 5630 nM.

B2: I-1126 (peptide)
peptide: Ac-[αAllylPro]D[Cha][B5(3)]DDAAFS[PyrS2″]F[Bta]Q-NH2
modifications: staple 1-4, 4-11 (inferred); not fully specified (residue 9); printed as Ac-PL3-Asp-Cha-B5-Asp-Asp-Ala-Ala-4F3MeF-Ser-PyrS2-Phe-BztA-Gln-NH2
As for B2, in test [2], the 50% inhibitory concentration (IC50) was 32 nM. In test [3], this molecule displayed a concentration for a half-maximal effect (EC50) of 32 nM.

As for Ac-[αAllylPro]N[Cha][B5(31)]D[hSer][Lys(iPr)]AFL[PyrS2″]F[Bta]Q-NH2 (staple 1-4, 4-11; also: staple isomer, earlier eluting HPLC peak) [I-2344], in test [1], the half-maximal inhibitory concentration (IC50) amounted to 586 nM.

B3: I-2355 (peptide)
peptide: Ac-[αAllylPro]N[Cha][B5(4)]DQ[hSer]AFL[PyrS2″]F[Bta]Q-NH2
modifications: staple 1-4, 4-11; also: later eluting isomer composition (HPLC), configuration not given here
Consider B3, for which the IC50 in test [1] was determined as 417 nM.

For Ac-[αAllylPro]N[Cha][B5(4)]DQHAFN[PyrS2″]F[Bta]A-NH2 (staple 1-4, 4-11) [I-2069], the concentration for half-maximal inhibition (IC50) in test [6] was determined as 256 nM.

Turning to Ac-[αAllylPro]F[tBuAla][B5(5)]DDAADN[PyrS2″][3Thi][Bta]Q-OH (staple 1-4, 4-11) [I-1027], the EC50 in test [4] was 1140 nM.

As for Ac-[αAllylPro][hSer][Cha][B5(4)]DQ[Lys(iPr)]AFL[PyrS2″]F[Bta]Q-NH2 (staple 1-4, 4-11) [I-2353], the IC50 in test [1] is 2760 nM.

For Ac-[αAllylPro]N[Cha][B5(31)]DH[Lys(iPr)]AFL[PyrS2″]F[Bta]Q-NH2 (staple 1-4, 4-11) [I-2349], in test [1], the IC50 was 1160 nM.

Regarding Ac-[αAllylPro]N[Cha][B5(4)]DQ[Lys(iPr)]AFN[PyrS2″]F[Bta]F-NH2 (staple 1-4, 4-11) [I-2068], the IC50 in test [6] was 338 nM.

With Ac-[αAllylPro]N[Cha][B5(3)]DQ[Lys(iPr)]AFL[PyrS2″]F[Bta]K-NH2 (staple 1-4, 4-11) [I-2350], the concentration for half-maximal inhibition (IC50) in test [1] turned out to be 63 nM.

As for Ac-[αAllylPro]N[Cha][B5(3)]DQ[hSer]AFL[PyrS2″]F[Bta]Q-NH2 (staple 1-4, 4-11; also: earlier eluting isomer, configuration not given here) [I-2354], the IC50 in test [1] amounted to 100 nM.

As to Ac-[αAllylPro]N[Cha][B5(31)]DH[Lys(iPr)]AFL[PyrS2″]F[Bta]Q-NH2 (staple 1-4, 4-11; also: staple isomer, earlier eluting HPLC peak) [I-2348], the IC50 in test [1] stood at 179 nM.

In turn, Ac-[αAllylPro]N[Cha][B5(4)]DQQAFN[PyrS2″]F[Bta]A-NH2 (staple 1-4, 4-11) [I-2070] displayed an IC50 in test [6] of 190 nM.
